In PMC3123307, “Identification of the Allosteric Regulatory Site of Insulysin” (PLoS ONE, 2011):
Numbering of substitutions follows the chain as printed. Names may count otherwise.

B1: Native rat insulin degrading enzyme (rIDE, insulysin), wild type, residues 42-1019 (enzyme, UniProt P35559 42-1019, looked up)
chain: MNNPAIQRIEDHIVKSPEDKREYRGLELANGIKVLLISDPTTDKSSAALDVHIGSLSDPPNIPGLSHFCEHMLFLGTKKYPKENEYSQFLSEHAGSSNAFTSGEHTNYYFDVSHEHLEGALDRFAQFFLCPLFDASCKDREVNAVDSEHEKNVMNDAWRLFQLEKATGNPKHPFSKFGTGNKYTLETRPNQEGIDVREELLKFHSTYYSSNLMAICVLGRESLDDLTNLVVKLFSEVENKNVPLPEFPEHPFQEEHLKQLYKIVPIKDIRNLYVTFPIPDLQQYYKSNPGHYLGHLIGHEGPGSLLSELKSKGWVNTLVGGQKEGARGFMFFIINVDLTEEGLLHVEDIILHMFQYIQKLRAEGPQEWVFQECKDLNAVAFRFKDKERPRGYTSKIAGKLHYYPLNGVLTAEYLLEEFRPDLIDMVLDKLRPENVRVAIVSKSFEGKTDRTEQWYGTQYKQEAIPEDVIQKWQNADLNGKFKLPTKNEFIPTNFEILALEKDATPYPALIKDTAMSKLWFKQDDKFFLPKACLNFEFFSPFAYVDPLHCNMAYLYLELLKDSLNEYAYAAELAGLSYDLQNTIYGMYLSVKGYNDKQPILLKKITEKMATFEIDKKRFEIIKEAYMRSLNNFRAEQPHQHAMYYLRLLMTEVAWTKDELKEALDDVTLPRLKAFIPQLLSRLHIEALLHGNITKQAALGVMQMVEDTLIEHAHTKPLLPSQLVRYREVQLPDRGWFVYQRRNEVHNNCGIEIYYQTDMQSTSENMFLELFCQIISEPCFNTLRTKEQLGYIVFSGPRRANGIQGLRFIIQSEKPPHYLESRVEAFLITMEKAIEDMTEEAFQKHIQALAIRRLDKPKKLSAECAKYWGEIISQQYNYDRDNIEVAYLKTLSKDDIIKFYKEMLAVDAPRRHKVSVHVLAREMDSCPVVGEFPSQNDINLSEAPPLPQPEVIHNMTEFKRGLPLFPLVKPHINFMAAKL
notes: Insulin-degrading enzyme (insulysin, EC 3.4.24.56), rat; begins at methionine 42 and extends through the native C-terminal residue leucine 1019 (the same paragraph also prints 'residues 42-1016'); In the crystal there is one molecule per asymmetric unit, and the dimer is formed by crystal symmetry; Expressed from pFastBac HTb; The model contains residues 42-963 and 980-1011; also called wild type …
B2: rat insulin degrading enzyme E111F mutant (rIDE-E111F), residues 42-1019 (enzyme, UniProt P35559 42-1019, looked up)
chain: B1 chain with E70F
notes: Insulin-degrading enzyme (insulysin), rat; begins at methionine 42 and extends through leucine 1019; catalytically compromised E111F mutant; No zinc ion in the crystal structure; The model contains residues 42-965 and 978-1011; also called E111F-rIDE; E111F IDE mutant; not shown: His6, N-terminal, cleaved

Columns and labels:
[1] = molecular target: Native rat insulin degrading enzyme (rIDE, insulysin), wild type, residues 42-1019 (rat) (UniProt P35559)
[2] = molecular target: the molecule itself; experiment: crystal structure; wild type rIDE and rIDE-E111F, no substrate peptide added; enzyme at 8 mg/ml in 50 mM Tris 7.4, 1 mM DTT, 100 mM NaCl; sitting drop, 100 mM sodium citrate pH 6.5, 100 mM ammonium acetate, 20% PEG 4000, 20 or 22°C; space group C2, one molecule per asymmetric unit

Molecule | enzyme activity: activation by bradykinin of hydrolysis of 10 µM Abz-…-EDDnp [1] [fold] | binding result [2]
bradykinin (from UniProt P01042 381-389) (peptide) | 4 | –
B1 | – | binds
B2 | – | binds
